Assay results as given in patent US7071299B2, “Peptide and polypeptide inhibitors of complement C1s” (ZymoGenetics, Inc., priority 2000, dated 2006).
Values joined by “and” are separate entries in the source; they are usually repeats but may differ in a detail not shown here. Identical values can stand only once.

Molecular target: T1, Activated human C1s (Homo sapiens, UniProt P09871)
T1 construct: purchased Calbiochem-Novabiochem Corporation; San Diego, Calif
T1 sequence (P09871 16-437 limits assumed): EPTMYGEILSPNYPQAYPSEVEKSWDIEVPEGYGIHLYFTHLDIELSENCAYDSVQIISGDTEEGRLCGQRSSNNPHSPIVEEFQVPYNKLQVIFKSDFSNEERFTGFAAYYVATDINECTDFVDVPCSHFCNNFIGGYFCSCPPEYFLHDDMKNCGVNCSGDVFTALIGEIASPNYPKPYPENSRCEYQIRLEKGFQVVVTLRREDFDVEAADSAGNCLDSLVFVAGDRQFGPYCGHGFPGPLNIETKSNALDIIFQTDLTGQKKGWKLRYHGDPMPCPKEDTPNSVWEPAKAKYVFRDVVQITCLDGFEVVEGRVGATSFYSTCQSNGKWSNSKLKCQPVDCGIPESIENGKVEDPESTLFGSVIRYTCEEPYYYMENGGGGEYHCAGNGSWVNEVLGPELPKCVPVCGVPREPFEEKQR
T1 sequence (P09871 438-688 limits assumed): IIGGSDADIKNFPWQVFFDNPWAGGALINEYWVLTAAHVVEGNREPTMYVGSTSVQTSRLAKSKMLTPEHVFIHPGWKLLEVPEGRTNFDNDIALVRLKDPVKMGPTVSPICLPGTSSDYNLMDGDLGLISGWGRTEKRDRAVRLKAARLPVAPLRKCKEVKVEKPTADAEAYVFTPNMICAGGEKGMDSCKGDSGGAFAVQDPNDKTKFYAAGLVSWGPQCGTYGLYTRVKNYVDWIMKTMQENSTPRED
Assay: C1s enzyme assay (chromogenic substrate Pefa-C1E, decrease in Vmax)
Assay type: biochemical
Conditions: Table 6, effect of posttranslational modifications on BD001 activity
Protocol: C1s enzyme assays were performed in 96 well plates preincubated in the assay buffer for 30 minutes at room temperature. Activated human C1s (Calbiochem-Novabiochem Corporation; San Diego, Calif.); final assay concentration: 1.25 μg/ml), was incubated with samples in 50 mM Tris-HCl (pH 8) that contained 116 mM sodium chloride and 0.05% Polysorbate 80. The chromogenic substrate, Pefa-C1E (Centerchem, Inc.; Stamford, Conn.; final assay concentration: 0.4 mM), was added to the assay wells and the plate was read at 405 nm, 37° C., for 30 minutes at 20 second intervals on a SPECTRAmax PLUS plate reader (Molecular Devices Corporation; Sunnyvale, Calif.). Inhibition was determined as a decrease in Vmax, which is calculated as the maximum Δ milli-absorbance units/min over the assay period.
Three types of post-translational modifications have been identified in BD001: (1) glycosylation at Asn^23 consisting of a fucosylated complex-type core; (2) sulfation of at least one of Tyr^117, Tyr^119, and Tyr^121; and (3) proteolytic cleavage after Arg^65. The first two modifications have been identified in native BD001 as well as recombinant BD001 expressed in Baculovirus. The third modification is seen in a fraction of the recombinant BD001 expressed in Baculovirus. […] The identity of each species was verified using mass spectroscopy, and protein concentrations were measured using absorbance at 280 nm. […]

B1: BD001 isolated from tissue: native leech protein BD001 (SEQ ID NO:1) isolated from the salivary complexes of the leech; inhibits C1s (protein, listed as Haementaria ghilianii)
chain: AKKKLPKCQKQEDCGSWDLKCNNVTKKCECRNQVCGRGCPKERYQRDKYGCRKCLCKGCDGFKCRLGCTYGFKTDKKGCEAFCTCNTKETACVNIWCTDPYKCNPESGRCEDPNEEYEYDYE
modifications: native, isolated from leech
  IC50: 4 nM and 4.7 nM
